The values below come from the supplement of paper PMC9170038.

Series [1] deals with MS2 coat protein. The series can be described thus: apparent KD of MS2 coat protein; designed switch direction (-1 OFF switch, 1 ON switch): 1; higher = weaker reporter binding. Put shortly:
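Normalised cluster fluorescence was curve-fitted, and each design's median over clusters is its apparent KD. Before this, SNAP-549-labelled MS2 coat protein was titrated from 0.7 or 1.5 nM, doubling to 3 µM, over RNA switches transcribed on Illumina chips by stalled E. coli RNA polymerase. Titrations had no input, 200 uM small-molecule ligand, or an oligonucleotide input, and steps lasted 0.8–1.5 h (lowest) to 10–20 min (highest).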

Series [2] has as its system MS2 coat protein. The series can be described thus: apparent KD of MS2 coat protein; higher = weaker reporter binding. As to conditions: Eterna round: R107. In outline:
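Apparent KD stands for the median, per design, of fits to normalised cluster binding curves. The curves came from titrating on-chip-transcribed RNA switches on Illumina sequencing clusters with SNAP-549-labelled MS2 coat protein, twofold from 0.7 or 1.5 nM to 3 µM. Buffer was 100 mM Tris-HCl pH 7.5, 80 mM KCl, 4 mM MgCl2, without or with constant ligand.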

[3] abbreviates: input ligand: microRNA oligo, concentration not stated.
The mark [4] stands for this setting: input ligand: theophylline 20 uM.
Where [5] appears, read: input ligand: theophylline 2 mM.
Setting [6] is: input ligand: tryptophan 2.4 mM.

Regarding “AACAAUCUAUCUGAGGAUAUCAUGAUAUAAACAUGAGGAUCACCCAUGUGCAGGAAAACUGCAUAUGAGAAGGCAGAUAGAUUGA [salish99_ss2_r3_031] (puzzle: Same State 2)”, the “apparent KD of MS2 coat protein” value in series [1] (Eterna round: R95, input ligand: FMN 200 uM) worked out at 43 nM; in series [1] (Eterna round: R95, input ligand: microRNA oligo, concentration not stated), 232 nM; in series [1] (Eterna round: R95, input ligand: none), 118 nM.
“AACAGUCGGCGAGGAUAUGGACGUACGGACUAACCCGCGCGGCUCACAUGAGGAUCACCCAUGUUCUAGAAGGCGCCACUGAAA [Xeorendi] (Eterna round: R96, puzzle: Same State NG 2)”: the “apparent KD of MS2 coat protein” value in series [1] (input ligand: FMN 200 uM) was determined as 13.8 nM; in series [1] (setting [3]), 45.3 nM; in series [1] (input ligand: none), 50.9 nM.
Turning to “AACCAGAGAAAACAACUCUGACAUGAGGAUCACCCAUGUACACAGGAUAUCAGCCCGAAAAGGGCUGAGAAGGGUGGCCGAGUG [Beveat] (Eterna round: R96, puzzle: Same State NG 3)”, the figures for the “apparent KD of MS2 coat protein” value in series [1] (input ligand: FMN 200 uM), in series [1] (setting [3]) and in series [1] (input ligand: none) were 574 nM, 29.2 nM and 33.9 nM, respectively.
On the same counts, the results for “AACGGUCGACAAGGAUAUGGACGGACAGGUUUGCCUGUGCGGCUCACAUGAGGAUCACCCAUGUUCUAGAAGGUGUCACCAAGA [Tiinor] (Eterna round: R96, puzzle: Same State NG 2)” are 36.9 nM, 141 nM and 259 nM.
With “UUCGUUUGCGGAAGGAGCGACGGACAUCGGUGAACAACGCACAUGAGGAUCACCCAUGUACGUCAGGUAGGUCGCCGCUAAGAGU [XArg-B3]”, the “apparent KD of MS2 coat protein” value in series [2] (input ligand: arginine 13.2 mM) is 29.3 nM; in series [2] (input ligand: none) it was 105 nM; in series [2] (setting [4]), 134 nM; in series [2] (setting [5]) it was 375 nM; in series [2] (setting [6]), 73.6 nM.
As to “UUGCAGAUCGGAAAGGUCCUGCUGUUCGAAGGAGCGGUAAAAGUACCAGGUAGGUCGCGAACAUGAGGAUCACCCAUGUUUGCAA [Usmaenbi]”, the “apparent KD of MS2 coat protein” value in series [2] (input ligand: arginine 13.2 mM) stood at 11.3 nM; in series [2] (input ligand: none) it was 22.3 nM; in series [2] (setting [4]), 28.2 nM; in series [2] (setting [5]), 20.2 nM; in series [2] (setting [6]), 21.1 nM.
For “UUGGGUUUGUGAAGGAGCGGGAAAGAUAUAUAUUUAAUCCUAACAUGAGGAUCACCCAUGUCCCAGGUAGGUCGCGCGGGUUUGG [12.O]” the same measures were 33.9 nM, 47.1 nM, 46.4 nM, 64.3 nM and 46.9 nM.
Regarding “UUGUUGUUUGGAAGGAGCGUGUAUGAGUUAGAACAUGAGGAUCACCCAUGUUGGAUGAUAGCACAGGUAGGUCGCCGGGUGGUGG [11.Y]”, the “apparent KD of MS2 coat protein” value in series [2] (input ligand: arginine 13.2 mM) was 8.43 nM; in series [2] (input ligand: none), 24.1 nM; in series [2] (setting [4]), 18.4 nM; in series [2] (setting [5]), 66.8 nM; in series [2] (setting [6]), 11 nM.
In the case of “UUUACAUGAGGAUCACCCAUGUGCCAUGAUACCAGACAUGAAAAUGUCCCUUGGCAGCAUGAGUGAUAUGCGUCGGAAACGACGC [Jundrov]”, the “apparent KD of MS2 coat protein” value in series [2] (input ligand: arginine 13.2 mM) worked out at 499 nM; in series [2] (input ligand: none), 153 nM; in series [2] (setting [4]) it was 102 nM; in series [2] (setting [5]), 1210 nM; in series [2] (setting [6]), 194 nM.
Take “UUUACGGGAAACCGAACUAAACAAAGGGAAGGAGCGCCAAACAAGGCAGGUAGGUCGCCCACAUGAGGAUCACCCAUGUGUUGGG [Exclusion Arginine A GF 25]”: the “apparent KD of MS2 coat protein” value in series [2] (input ligand: arginine 13.2 mM) came to 32.6 nM; in series [2] (input ligand: none), 60.3 nM; in series [2] (setting [4]), 67.9 nM; in series [2] (setting [5]), 64 nM; in series [2] (setting [6]), 53.2 nM.
For the sequence “UUUUUCGUAGGUUAAAGUUUAGAAACUGAAGGAGCGUGGUAAUACACAGGUAGGUCGCAGAUUUUACAUGAGGAUCACCCAUGUU [JR_ExcArginiA_Sub012]”, the “apparent KD of MS2 coat protein” value in series [2] (input ligand: arginine 13.2 mM) came out at 26.9 nM; in series [2] (input ligand: none) it was 24.5 nM; in series [2] (setting [4]) it was 20.7 nM; in series [2] (setting [5]), 26.2 nM; in series [2] (setting [6]), 21.1 nM.
On to “UUUUUUAUUGGGUAUAGAAUAUUAACUGAAGGAGCGUGGUAUUACACAGGUAGGUCGCAGUUUUUACAUGAGGAUCACCCAUGUU [JR_SSArginiA_Sub010]”, for which the “apparent KD of MS2 coat protein” value in series [2] (input ligand: arginine 13.2 mM) stood at 36.1 nM; in series [2] (input ligand: none) it was 38.5 nM; in series [2] (setting [4]) it was 51.5 nM; in series [2] (setting [5]), 60.1 nM; in series [2] (setting [6]) it was 39 nM.
